For two substances, IC50 and percent displacement of 125I Cry1Ab results are on record in patent publication US20130007924A1.

Where only a bound is given, the exact number is not on record here.

The target of test [1] is putative receptor proteins in brush border membrane vesicles (BBMV) from European corn borer (Ostrinia nubilalis) larval midgut (Ostrinia nubilalis). The experiment in a line: homologous competition: unlabeled Cry1Ab against 0.5 nM 125I Cry1Ab on ECB BBMV.
The target is the same in test [2]. The experiment in a line: heterologous competition: unlabeled Cry2Aa at 1,000 nM against 0.5 nM 125I Cry1Ab on ECB BBMV.

For “Cry1Ab protein (truncated Cry toxin) (from UniProt P0A370 29-612)”, the IC50 in test [1] is 3 nM.

“Cry2Aa protein (from UniProt P0A377 1-633)” registered a percent displacement of 125I Cry1Ab at 1,000 nM competitor in test [2] below 50%.
